Measurements taken from US20110152183A1 (Novo Nordisk, published 2011).
Bridge positions count the residues as written; N and C are the ends.

T1: Amylin 3(a) receptor (human calcitonin receptor (CTa) coexpressed with RAMP-3) on BHK570 cells (human, UniProt P30988 25-474)
T1 sequence (P30988 whole entry, looked up): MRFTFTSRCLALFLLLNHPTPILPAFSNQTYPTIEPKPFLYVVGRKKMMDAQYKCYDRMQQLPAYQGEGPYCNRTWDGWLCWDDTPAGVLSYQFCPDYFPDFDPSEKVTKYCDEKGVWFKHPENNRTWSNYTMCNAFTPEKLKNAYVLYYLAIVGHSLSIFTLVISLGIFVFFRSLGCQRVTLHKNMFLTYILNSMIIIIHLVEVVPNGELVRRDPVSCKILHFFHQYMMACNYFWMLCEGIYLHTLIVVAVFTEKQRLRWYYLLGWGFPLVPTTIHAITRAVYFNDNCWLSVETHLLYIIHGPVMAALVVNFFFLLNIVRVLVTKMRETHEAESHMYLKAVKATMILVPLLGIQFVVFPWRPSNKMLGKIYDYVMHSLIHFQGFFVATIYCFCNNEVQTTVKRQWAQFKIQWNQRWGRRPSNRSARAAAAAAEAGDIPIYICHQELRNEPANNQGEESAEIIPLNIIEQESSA
T1 sequence (O60896 whole entry, looked up): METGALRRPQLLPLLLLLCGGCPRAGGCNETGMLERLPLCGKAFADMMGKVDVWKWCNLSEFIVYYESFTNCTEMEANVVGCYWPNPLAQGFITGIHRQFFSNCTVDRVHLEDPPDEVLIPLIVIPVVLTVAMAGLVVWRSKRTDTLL

B1: N-alpha1-(4-Carboxy-4-(19-carboxy-nonadecanoylamino)butyryl)-amylin (1-8)-[Arg11,Arg18]sCT (9-27)-amylin (33-37) (peptide)
peptide: {4‑carboxy‑4‑(19-carboxy-nonadecanoylamino)butyryl}-KCNTATCALGRLSQELHRLQTYPRTNTGSNTY-NH2
modifications: disulfide 2-7
B2: Amylin (1-8)-[Arg11,Arg18]sCT (9-27)-amylin (33-37) (peptide)
peptide: KCNTATCALGRLSQELHRLQTYPRTNTGSNTY
HELM: PEPTIDE1{K.C.N.T.A.T.C.A.L.G.R.L.S.Q.E.L.H.R.L.Q.T.Y.P.R.T.N.T.G.S.N.T.Y.[am]}$PEPTIDE1,PEPTIDE1,2:R3-7:R3$$$V2.0; N-terminus assumed
SMILES: CC(C)C[C@H](NC(=O)[C@H](C)NC(=O)[C@@H]1CSSC[C@H](NC(=O)[C@@H](N)CCCCN)C(=O)N[C@@H](CC(N)=O)C(=O)N[C@@H]([C@@H](C)O)C(=O)N[C@@H](C)C(=O)N[C@@H]([C@@H](C)O)C(=O)N1)C(=O)NCC(=O)N[C@@H](CCCNC(=N)N)C(=O)N[C@@H](CC(C)C)C(=O)N[C@@H](CO)C(=O)N[C@@H](CCC(N)=O)C(=O)N[C@@H](CCC(=O)O)C(=O)N[C@@H](CC(C)C)C(=O)N[C@@H](Cc1c[nH]cn1)C(=O)N[C@@H](CCCNC(=N)N)C(=O)N[C@@H](CC(C)C)C(=O)N[C@@H](CCC(N)=O)C(=O)N[C@H](C(=O)N[C@@H](Cc1ccc(O)cc1)C(=O)N1CCC[C@H]1C(=O)N[C@@H](CCCNC(=N)N)C(=O)N[C@H](C(=O)N[C@@H](CC(N)=O)C(=O)N[C@H](C(=O)NCC(=O)N[C@@H](CO)C(=O)N[C@@H](CC(N)=O)C(=O)N[C@H](C(=O)N[C@@H](Cc1ccc(O)cc1)C(N)=O)[C@@H](C)O)[C@@H](C)O)[C@@H](C)O)[C@@H](C)O
B3: [His1]amylin (1-8)-[His11,His18,His24]sCT (9-27)-amylin (33-37) (peptide)
peptide: HCNTATCALGHLSQELHHLQTYPHTNTGSNTY
HELM: PEPTIDE1{H.C.N.T.A.T.C.A.L.G.H.L.S.Q.E.L.H.H.L.Q.T.Y.P.H.T.N.T.G.S.N.T.Y.[am]}$PEPTIDE1,PEPTIDE1,2:R3-7:R3$$$V2.0; N-terminus assumed
SMILES: CC(C)C[C@H](NC(=O)[C@H](C)NC(=O)[C@@H]1CSSC[C@H](NC(=O)[C@@H](N)Cc2c[nH]cn2)C(=O)N[C@@H](CC(N)=O)C(=O)N[C@@H]([C@@H](C)O)C(=O)N[C@@H](C)C(=O)N[C@@H]([C@@H](C)O)C(=O)N1)C(=O)NCC(=O)N[C@@H](Cc1c[nH]cn1)C(=O)N[C@@H](CC(C)C)C(=O)N[C@@H](CO)C(=O)N[C@@H](CCC(N)=O)C(=O)N[C@@H](CCC(=O)O)C(=O)N[C@@H](CC(C)C)C(=O)N[C@@H](Cc1c[nH]cn1)C(=O)N[C@@H](Cc1c[nH]cn1)C(=O)N[C@@H](CC(C)C)C(=O)N[C@@H](CCC(N)=O)C(=O)N[C@H](C(=O)N[C@@H](Cc1ccc(O)cc1)C(=O)N1CCC[C@H]1C(=O)N[C@@H](Cc1c[nH]cn1)C(=O)N[C@H](C(=O)N[C@@H](CC(N)=O)C(=O)N[C@H](C(=O)NCC(=O)N[C@@H](CO)C(=O)N[C@@H](CC(N)=O)C(=O)N[C@H](C(=O)N[C@@H](Cc1ccc(O)cc1)C(N)=O)[C@@H](C)O)[C@@H](C)O)[C@@H](C)O)[C@@H](C)O

Tests used:
[1] = target: T1, Amylin 3(a) receptor (human calcitonin …); test: cell-based or functional assay
[2] = target: Amylin 3(a) receptor (human calcitonin receptor (CTa) coexpressed with RAMP-3) on BHK570 cells (human, UniProt P30988 25-474); test: cell-based or functional assay; remark: listed apart in the source

| EC50 (pM) in luciferase assay [1] | EC50 (pM) in luciferase assay [2] | Binder |
| --- | --- | --- |
| 50 pM |  | B1 |
| 3 pM |  | B2 |
|  | 10 pM | B3 |
